{
  "source": "the DeepSol protein solubility set",
  "data": [
    {"assay": "soluble on expression in E. coli; label from the status in PepcDB or PDB records", "values": [
      {"sequence": "MKRRLDDQESPVYAAQQRRIPGSTEAFPHQHRVLAPAPPVYEAVSETMQSATGIQYSVTPSYQVSAMPQSSGSHGPAIAAVHSSHHHPTAVQPHGGQVVQSHAHPAPPVAPVQGQQQFQRLKVVFSSFSWVKKFIFSRKYWLQLVGCGGTTSNLRY", "soluble on expression in E. coli": "not soluble"},
      {"sequence": "MKRSEKKSMSSALKNGIMERTQPEKVVQMQGTADLSTSKLGTKKYWDELYALELENFRRNPQDTGDCWFSDSDAEQKMIDFLVDNIGAYRISENASVVDLGTGNGHMLFELHQTEFQGKLVGIDYSEESVKLASNIAEATGVDNFISFQQADIFSGDWKPGKYDIVLDKGTLDAISLSGMKINGKLDVVDVYAGVVERILKKDGIFLITSCNFTQDELVKIIETDNLKMWKTIKYPVFQFGGVQGATICSVAFVKQN", "soluble on expression in E. coli": "soluble"},
      {"sequence": "MKRSSTVLAALLALLLVATNDAARHRKYRQTYQDIDSDDDDTSDVQITVFPSEKEVRDGRDVSFECRARTSDNSVYPTVRWARVGGPLPSSAHDSGGRLTINPVQLSDAGTYICVSDYNGNTVEARATLSVVSYGPQEVSNGLRQAGQCMADEKACGNNECVKNDYVCDGEPDCRDRSDEANCPAISRTCEPNEFKCNNNKCVQKMWLCDGDDDCGDNSDELNCNAKPSSSDCKPTEFQCHDRRQCVPSSFHCDGTNDCHDGSDEVGCVQPTVVDPPQTNLQVPRGTTFSLTCKAVAVPEPYINWRLNWGPVCEPPRCLQTSEGGYGTLTIHDAQPVDQGAYTCEAINVKGRVLATPDCIVRVVDDPRPQPPQPPTAPPQRASCDTRGAVTPYPNNYGTCECKSQVTGPNCDQCKPGAFHLSEKSPEGCLKCFCFGVSNDCRSSGHYRTKDRLMFAGDAEGVTISDIEERTIDRNTPFSFFKTGYLTFDGTTDGVAKYWRLPQRFLGDKVTAYGGKMEFEIEFSGSGHHSSEPMVVLKGNQNILVHRVRNQEHVLRSDSPVRITVETYETNYEQLNGAAATREDLLMVLADLDAFLIRATHVAHQTSTSLGDVSWEIAVDRYTPDGLALEVEQCVCPPGYLGTSCEDCAPGYERSGYGPYLGTCVPIQPRHQQCGPGAVAPTAPAQGQCQCKASVIGPNCDRCAPNSFGLAPTNPQGCIPCFCSGVTQQCSASSYRRTSVSIDYARGDRDQLELTTSDSRQPYSPQTRAELSGQAIEFRSFEEARGQTLYWKLPEKFLGDKVTSYGGTLEYTFKFSGNGNSDQSADVILRGNDIALQYKHREPFYADRENKVQIKIIETSWQRVDGQQATREHLLMTLADLDTLLIKSTYNDDCTDSQLLSANLEFAEPYGQGLTAAEVEQCICPPGYVGTSCEDCAPGYSRTGGGLYLGLCEKCECNGHASQCDKEYGYCLDCQHNTEGDQCERCKPGFVGDARRGTPNDCQPEATRAPCHCNNHSPRGCDSFGRCLLCEHNTEGTHCERCKKGYYGDATKGSPYDCTPCPCPGASDCYLDNEGQVACRICPAGLQGRLCNECAPGYTRSNKPAGRVCEPIGQVTNEDITFVQKPHEGDFARNSPSQNSSGQRRHRRRRIRVRSRFYHH", "soluble on expression in E. coli": "not soluble"},
      {"sequence": "MKRSTTDSDLAGDAHNETNKKMKSTEEEEIGFSNLDENLVYEVLKHVDAKTLAMSSCVSKIWHKTAQDERLWELICTRHWTNIGCGQNQLRSVVLALGGFRRLHSLYLWPLSKPNPRARFGKDELKLTLSLLSIRYYEKMSFTKRPLPESK", "soluble on expression in E. coli": "soluble"},
      {"sequence": "MKRVLIPGVILCGADVAQAVDDKNMYMHFFEEMTVYAPVPVPVNGNTHYTSESIERLPTGNGNISDLLRTNPAVRMDSTQSTSLNQGDIRPEKISIHGASPYQNAYLIDGISATNNLNPANESDASSATNISGMSQGYYLDVSLLDNVTLYDSFVPVEFGRFNGGVIDAKIKRFNADDSKVKLGYRTTRSDWLTSHIDENNKSAFNQGSSGSTYYSPDFKKNFYTLSFNQELADNFGVTAGLSRRQSDITRADYVSNDGIVAGRAQYKNVIDTALSKFTWFASDRFTHDLTLKYTGSSRDYNTSTFPQSDREMGNKSYGLAWDMDTQLAWAKLRTTVGWDHISDYTRHDHDIWYTELSCTYGDITGRCTRGGLGHISQAVDNYTFKTRLDWQKFAVGNVSHQPYFGAEYIYSDAWTERHNQSESYVINAAGKKTNHTIYHKGKGRLGIDNYTLYMADRISWRNVSLMPGVRYDYDNYLSNHNISPRFMTEWDIFANQTSMITAGYNRYYGGNILDMGLRDIRNSWTESVSGNKTLTRYQDLKTPYNDELAMGLQQKIGKNVIARANYVYREAHDQISKSSRTDSATKTTITEYNNDGKTKTHSFSLSFELAEPLHIRQVDINPQIVFSYIKSKGNLSLNNGYEESNTGDNQVVYNGNLVSYDSVPVADFNNPLKISLNMDFTHQPSGLVWANTLAWQEARKARIILGKTNAQYISEYSDYKQYVDEKLDSSLTWDTRLSWTPQFLQQQNLTISADILNVLDSKTAVDTTNTGVATYASGRTFWLDVSMKF", "soluble on expression in E. coli": "not soluble"},
      {"sequence": "MKSASDPFDLKRFVYAQAPVYRSVVEELRAGRKRGHWMWFVFPQLRGLGSSPLAVRYGISSLEEAQAYLQHDLLGPRLHECTGLVNQVQGRSIEEIFGPPDDLKLCSSMTLFARATDANQDFVALLAKYYGGGEDRRTVALLAVT", "soluble on expression in E. coli": "soluble"},
      {"sequence": "MKSKRLSLVLMTAALGLTACATTQSPTGRSQTLLYSSSQMQQMGDASFAEMKKQQKISGNKKLTQYVNCVANRVTAVLPDQTQKWDVVLFDSEQVNAFALPGGHIGVYTGLLKVASTPDQLATVLGHEVAHVLAQHGNEQVSRSQMTGMGMQIADAALGAGGVSNRDLYMSALGLGAQVGVILPFGRAQESEADIMGLELMARAGFDPAQSVVLWQNMSKAGGGKGPELLSTHPSNNNRIAQLEQLQGQMQPLYQSAKANIKNQCAAPKLEHHHHHH", "soluble on expression in E. coli": "not soluble"},
      {"sequence": "MKSMPTISRIQRIKEYLSKRKLSQRRKVGVLVDGPNMLRKEFNINLKEIREILSEYGDIKIAKVFLNQYATEKLVEAIENQGFEPIVTSGDVDVRMAVEAMELIYNDSIDAVALVTRDADFKAVLMKAMEMGKETIIIGAEPGFSTALKNSADIAIVLNEDEEKEKGDADEEEIIEV", "soluble on expression in E. coli": "not soluble"},
      {"sequence": "MKSPSAGAPDRHASSRSVPDRWNMHKPMLCDSLPTASRTAAAILNLAQREDVTAEALAQLIQTDPALTGRILRFANAPAQGTRRPVASVIDAIDLVGLPAVRQFALSLSLIDAHREGRCEAFDYAAYWQKSLARAVALQSITAQASTVAPKEAFTLGLLADVGRLALATAWPEEYSECLRKADGEALIALERERFATDHDELTRMLLTDWGFPQVFIDALQLSQQDEIRDEGRTGRFARQLALAQHIADHRLAEEPRRAALSPLLRAEARRCGLGDEDLARLLADPPADWLDWTRTIGLPGDAPTGGAEPSRPPPQTDEKLHVLLADDDPIMLARLSRQLEADGHHVASRRDGETALAYALEHQPEMVITDWHMKPMNGLELCRALRESALGGNVYIVMLTASESEDALVEAFGAGIDDYVIKPPSVRVLKARIRAGQRIITLHKKLARERKEIERYSSELAAANRRLELMAHTDQLTGLPNRRYAMDRLEREWAQARTFDRPLSIMMLDLDWFKSINDSLGHDAGDQALVHAARVMRETVRTSDVVCRMGGEEFLIIIPDTAGPAAIQTAERVRSAVEQQQPAKLKLSRPLTASIGVADSTSAPSLKDLLLKADNALYQVKQNGRNGVRYAGLAAALEHHHHHH", "soluble on expression in E. coli": "not soluble"},
      {"sequence": "MKSRREQSIEEAIVANYLKMMIDNVNVWPRHFLRSEDVYCKNPWTLFVTRDPIILHFGRYFFVNRSVNSGLTDGCEYGCWRIIGRDRVIKSVTTGKILGLKKVYKFCETDRKPKSVFKFLEKEKRRVRDRRIWAMEEYRFASTWKQDYVICKIRRLYPQPFDYMLAQHIRGYYK", "soluble on expression in E. coli": "soluble"},
      {"sequence": "MKSTGETLNIEEKVFAIADQFDHQGKIVQIKPFGNGNINDTFLVDLDGQTQTSFILQRINHQVFKNPAAVMGNMVRVTTHIKQKLQRQPLERPWLMPEVILTKNNQDHWDSGTGEFWRAISFIAGSESFDILTDPAQAKEVGTALGIFHQLLSDLSPSQLVDTLPGFHHTPIYLQQYQRALAQNPKLTGSLGPEINHCQRVIKTWLDQCGVLETAKAQGQLPLRLMHGDPKVNNILFDRQSGKAVSVIDLDTTKPGLIHYDLGDCLRSGCNLLGEETENWSAVEFDLDLCRAILEGYLPQCQHFLTAADYDYLCPAIVLISFELGLRFFTDYLNGDRYFKVKYPEHNLIRALVQFQLASHIQSQEDAIRRMIEDIRGLEHHHHHH", "soluble on expression in E. coli": "not soluble"},
      {"sequence": "MKTDRLLADTKTIRYEETDLASLISAPYHFRCGIYLICTQGEAVVSTGVQKYIFNEQTELIFLTGGLLQVLETSGDLQVKMLMFPKEAFLNAMLPIDTPYFNYTHEHPCYHHTADERSQKTWRQINLWMDMAQMLFTEPMPQFRGQQEHNFLQSLLMWLFNTIPEKLAVSKQYSRTQLLCHRFMQLIREYSMHEHQVAFYAEKLCISSRYLHKITVRHLDGKKPKQLIDEQLVAEIKVLLNEPRLSVTEIAEQLHFPDQSYLTHFFKKNTGISPKEFRAIKNLG", "soluble on expression in E. coli": "not soluble"},
      {"sequence": "MKTFEELCQENYSRIYKYIFSMTGSKESTEDLIQEVFIAAYEKGEAFLRHEKPAAFLYKTARNMTVTYLKNLKRQRISAMEYLSENIPQDDTDLCETLLMELDRKIDETAYTGQVIGNLNTNQHNLYRQRYVEGKSIKEIASEEGVSETAMRMRLVRLRKEIQDIVKKLKLGEK", "soluble on expression in E. coli": "not soluble"},
      {"sequence": "MKTFEVMIQTDSKGYLDAKFGGNAPKAFLNSNGLPTYSPKISWQKVEGAQSYALELIDHDAQKVCGMPFVHWVVGNIAHNVLEENASMMDKRIVQGVNSLTQGFIRSPLNESEKQRSNLNNSVYIGPMPPNGDHHYLIQVYALDIPKLALKAPFFLGDLHDKMRNHIIAIGRKEFLYKQFVRK", "soluble on expression in E. coli": "soluble"},
      {"sequence": "MKTINSVDTKEFLNHQVANLNVFTVKIHQIHWYMRGHNFFTLGEKMDDLYSEFGEQMDEVAERLLAIGGSPFSTLKEFLENASVEEAPYTKPKTMDQLMEDLVGTLELLRDEYKQGIELTDKEGDDVTNDMLIAFKASIDKHIWMFKAFLGKAPLE", "soluble on expression in E. coli": "soluble"},
      {"sequence": "MKTKPQAPHVDFYEKSELLHFLDCASKHENPQAFMFFRLLAFTGLRRGEALALQWSDINFETNELTVNKTQAVGKRWRTIIQTPKTNTSYRTIVLDPDTAQWLHKWKMTQARQCFELGFNANDPSQLVFTNQQNKLMSPSTVNYFNWSICKKYGLRHIKIHAFRHTFCTLAFEAHAGINEVSKTLGHADLKITEQIYLHVTKKQKNETASKLARYMSELLEHHHHHH", "soluble on expression in E. coli": "soluble"},
      {"sequence": "MKTKYVVIIQCDMAKNRCSGMRCTNAFYEKTDAFENYAKDTKYISFTCGGCSGKVVSSKLANFSRWLKKYDCIKKDEVTIHLSSCMSTDNSHYDRCPNIDYIKQIINKKGYTNIVEGSIFSKKSEKLRDEGIYKKYQ", "soluble on expression in E. coli": "not soluble"},
      {"sequence": "MKTQFIAGHARLPAGMAAKSLYDTLTITAEIDKKYGVIVEASCTLATEHGRDYVARLLRGHSLRDGIDGLLAELDEGYLGKAHSALCAALKDLYKQYCKMEEKEP", "soluble on expression in E. coli": "not soluble"},
      {"sequence": "MKTQHVVVVGAGMGGLAAAIDLASRGLRVTVLERSPSPGGKMREIAVGGARLDAGPTVFTMRWVFEELFADAGASLGESLRLRAAEVLARHTWGDGAPFDLFADAARSTEAVGELAGAAEAKRFVAFCARARGIWQALEGPFIRGQRPSPGELVRRSGLSGLSGLARISPFTLLWKALGEHFHDPRLRQLFGRYATYCGSSPFLAPATLMLVAHVEQQGVWMVDGGMHQIARAMADLATAKGATFRYSTTAESVLVENGKVGGLILQGGERLAADIVLINGDAAALAARCFGPQVAAAVPPVPPTARSLSAVTWGLLAEAEGFPLLRHSVFFGNDYPGEFRDIFTHGRLPSSPTVYVCAQDRGDKAPTVGPSGPRPERLLVLVNAPARGDLSFPDAMELDTCTARTFAFLERCGLTLRRTPEATRVTTPADFNSLFPATGGALYGRASHGWSATFDRPGAKTAMPGLYLAGGSVHPGPGVPMAALSGRLAAQAVLADLTSRGRLEHHHHHH", "soluble on expression in E. coli": "not soluble"}
    ]}
  ]
}
